In assay [1] the target is T1, Dengue virus serotype 1 strain PVP 159 (DENV1/SG/07K3640DK1/2008) E protein, on whole virus (Dengue virus serotype 1, UniProt P27909 281-676).
T1 construct: also called DENV1 E protein

The target in assay [2] is T2, Dengue virus serotype 3 (DENV3) E protein, on whole virus (Dengue virus serotype 3, UniProt P27915 281-773).
T2 construct: mature; also called Dengue serotype 3
The assay can be described thus: sandwich ELISA on live whole virus. Background: In an ELISA, binding on a coated surface is turned into a signal by an enzyme label.

Assay [3] concerns the target T3, Dengue virus serotype 2 (DENV2) E protein, on whole virus (Dengue virus serotype 2, UniProt P29990 281-775).
T3 construct: mature; also called Dengue serotype 2
Briefly: sandwich ELISA on live whole virus.

In assay [4] the target is T4, Dengue virus serotype 4 (DENV4) E protein, on whole virus (Dengue virus serotype 4, UniProt P09866 280-774).
T4 construct: mature; also called Dengue serotype 4
Briefly: sandwich ELISA on live whole virus.

B1: Fab HM14c10 (Fab, V domains shown)
VH: EVQLVESGGGVVQPGRSLRLSCAASGFSFSSYGMHWVRQAPGKGLEWVAVIWYDGSKTYYGDSVKGRFTISKDNSKKMVNLQMDSLGVEDTAFYYCARGIAGGWAFWGIDLWGQGTLVTVSS
VL: DVVMTQSPGTLSLSPGERATLSCRASQNVYSYLGWYQHKPGRSPRLLIFGVTSRATGVPDRFSGSGSGTDFTLTISRLEPEDFAVYYCQQYAGSAYTFGQGTKVEIKR
notes: also called HM14c10Fab; Fab 14c10
With B1, the binding result in assay [1] is on record as “binds”.

B2: HM14c10 (recombinant human IgG1 antibody 14c10, clone 8) (antibody, V domains shown)
VH: B1 VH
VL: B1 VL
notes: also called 14c10.8; recombinant IgG1 14c10 antibody
As for B2, the binding result in assay [2], in assay [3] and in assay [4] was “no binding” in each case.

Source of the values: patent US9376486 (NATIONAL UNIVERSITY OF SINGAPORE, dated 2016).
